The source of these data is US20190031734A1 (CHILDREN S MEDICAL CENTER, published 2019).

The target in assay [1] is T1, CSPG4 endogenous on HeLa cells (human, UniProt Q6UVK1 30-2322).
T1 construct: whole, on cells
In words: binding to HeLa cells; largely abolished in CSPG4^-/- cells.

The target of assay [2] is T2, FZD2-CRD-Fc, recombinant human protein (ACRO Biosystems) (human, UniProt Q14332 24-190).
T2 construct: domain: cysteine-rich domain (CRD); also called Fc-tagged FZD2-CRD; FZD2-Fc; not shown: Fc tag of the purchased protein
As to the kind of experiment: GST pull-down, immunoblot. On the technique in general: In western blotting, separated proteins are transferred to a membrane and probed.

T1 sequence (Q6UVK1 30-2322): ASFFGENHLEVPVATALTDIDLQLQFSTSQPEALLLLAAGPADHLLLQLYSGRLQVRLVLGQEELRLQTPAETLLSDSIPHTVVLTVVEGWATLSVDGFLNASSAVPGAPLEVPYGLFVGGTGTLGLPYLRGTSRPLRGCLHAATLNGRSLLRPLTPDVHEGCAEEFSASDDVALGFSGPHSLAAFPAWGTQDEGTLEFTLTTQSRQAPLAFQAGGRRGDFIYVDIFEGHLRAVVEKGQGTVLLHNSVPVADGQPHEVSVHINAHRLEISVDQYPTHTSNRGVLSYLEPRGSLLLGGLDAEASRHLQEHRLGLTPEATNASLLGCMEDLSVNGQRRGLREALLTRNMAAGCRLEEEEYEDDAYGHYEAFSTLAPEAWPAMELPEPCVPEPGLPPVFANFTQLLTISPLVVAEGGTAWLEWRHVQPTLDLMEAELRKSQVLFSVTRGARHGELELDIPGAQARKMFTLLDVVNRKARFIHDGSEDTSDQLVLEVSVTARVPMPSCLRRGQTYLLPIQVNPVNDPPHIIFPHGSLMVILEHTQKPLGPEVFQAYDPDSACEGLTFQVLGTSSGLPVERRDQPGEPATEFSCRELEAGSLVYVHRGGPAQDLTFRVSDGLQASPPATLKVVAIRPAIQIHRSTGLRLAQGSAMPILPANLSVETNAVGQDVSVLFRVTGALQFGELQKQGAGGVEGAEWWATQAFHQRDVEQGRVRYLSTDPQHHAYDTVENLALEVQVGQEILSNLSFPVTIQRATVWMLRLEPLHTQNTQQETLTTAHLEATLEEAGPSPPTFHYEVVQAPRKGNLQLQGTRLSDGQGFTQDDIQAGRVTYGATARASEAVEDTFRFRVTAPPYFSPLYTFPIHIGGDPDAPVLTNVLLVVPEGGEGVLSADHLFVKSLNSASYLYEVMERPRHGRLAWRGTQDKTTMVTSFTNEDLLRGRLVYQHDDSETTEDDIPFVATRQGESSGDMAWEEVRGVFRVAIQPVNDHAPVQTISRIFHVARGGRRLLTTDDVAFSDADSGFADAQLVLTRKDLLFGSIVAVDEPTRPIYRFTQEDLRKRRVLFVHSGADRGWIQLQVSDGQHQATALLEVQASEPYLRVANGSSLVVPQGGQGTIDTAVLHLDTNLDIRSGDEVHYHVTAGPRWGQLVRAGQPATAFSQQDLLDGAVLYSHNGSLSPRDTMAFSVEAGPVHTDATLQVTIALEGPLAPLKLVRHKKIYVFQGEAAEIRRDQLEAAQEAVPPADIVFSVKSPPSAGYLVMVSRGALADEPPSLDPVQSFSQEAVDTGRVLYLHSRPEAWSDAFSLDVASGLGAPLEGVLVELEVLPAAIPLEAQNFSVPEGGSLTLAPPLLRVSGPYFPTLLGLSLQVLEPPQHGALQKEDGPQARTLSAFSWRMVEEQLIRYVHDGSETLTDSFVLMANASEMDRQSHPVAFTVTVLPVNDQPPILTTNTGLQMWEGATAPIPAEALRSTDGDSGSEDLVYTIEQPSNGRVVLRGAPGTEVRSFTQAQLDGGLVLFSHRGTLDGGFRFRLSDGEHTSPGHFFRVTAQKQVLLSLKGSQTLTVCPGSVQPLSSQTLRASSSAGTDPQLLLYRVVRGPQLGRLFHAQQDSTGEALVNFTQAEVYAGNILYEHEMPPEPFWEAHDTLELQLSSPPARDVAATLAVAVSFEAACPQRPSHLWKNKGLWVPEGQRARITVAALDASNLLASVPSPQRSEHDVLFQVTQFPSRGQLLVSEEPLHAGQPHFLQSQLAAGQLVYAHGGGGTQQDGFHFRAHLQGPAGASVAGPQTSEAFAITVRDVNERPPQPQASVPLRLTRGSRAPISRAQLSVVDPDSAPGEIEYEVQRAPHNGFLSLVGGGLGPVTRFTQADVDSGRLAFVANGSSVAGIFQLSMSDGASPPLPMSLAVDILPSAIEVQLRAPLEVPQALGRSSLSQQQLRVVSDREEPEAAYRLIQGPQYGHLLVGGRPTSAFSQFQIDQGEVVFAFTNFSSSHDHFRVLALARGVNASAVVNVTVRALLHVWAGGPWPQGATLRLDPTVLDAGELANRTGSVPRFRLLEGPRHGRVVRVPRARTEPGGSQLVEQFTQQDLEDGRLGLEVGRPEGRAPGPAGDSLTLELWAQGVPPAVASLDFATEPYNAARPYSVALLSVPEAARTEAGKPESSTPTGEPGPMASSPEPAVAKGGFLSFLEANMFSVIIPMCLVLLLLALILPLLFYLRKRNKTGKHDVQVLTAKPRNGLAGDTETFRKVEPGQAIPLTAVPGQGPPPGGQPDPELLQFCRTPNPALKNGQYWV

B1: CROPs fragment of TcdB (TcdB1831-2366) as used in the cell-binding assays (other)
chain: MVSGLIYINDSLYYFKPPVNNLITGFVTVGDDKYYFNPINGGAASIGETIIDDKNYYFNQSGVLQTGVFSTEDGFKYFAPANTLDENLEGEAIDFTGKLIIDENIYYFDDNYRGAVEWKELDGEMHYFSPETGKAFKGLNQIGDYKYYFNSDGVMQKGFVSINDNKHYFDDSGVMKVGYTEIDGKHFYFAENGEMQIGVFNTEDGFKYFAHHNEDLGNEEGEEISYSGILNFNNKIYYFDDSFTAVVGWKDLEDGSKYYFDEDTAEAYIGLSLINDGQYYFNDDGIMQVGFVTINDKVFYFSDSGIIESGVQNIDDNYFYIDDNGIVQIGVFDTSDGYKYFAPANTVNDNIYGQAVEYSGLVRVGEDVYYFGETYTIETGWIYDMENESDKYYFNPETKKACKGINLIDDIKYYFDEKGIMRTGLISFENNNYYFNENGEMQFGYINIEDKMFYFGEDGVMQIGVFNTPDGFKYFAHQNTLDENFEGESINYTGWLDLDEKRYYFTDEYIAATGSVIIDGEEYYFDPDTAQLVISE
With B1, the binding result in assay [1] is “binds”.

B2: GST-tagged CROPs region of TcdB (residues 1831-2366) (other)
chain: MVSGLIYINDSLYYFKPPVNNLITGFVTVGDDKYYFNPINGGAASIGETIIDDKNYYFNQSGVLQTGVFSTEDGFKYFAPANTLDENLEGEAIDFTGKLIIDENIYYFDDNYRGAVEWKELDGEMHYFSPETGKAFKGLNQIGDYKYYFNSDGVMQKGFVSINDNKHYFDDSGVMKVGYTEIDGKHFYFAENGEMQIGVFNTEDGFKYFAHHNEDLGNEEGEEISYSGILNFNNKIYYFDDSFTAVVGWKDLEDGSKYYFDEDTAEAYIGLSLINDGQYYFNDDGIMQVGFVTINDKVFYFSDSGIIESGVQNIDDNYFYIDDNGIVQIGVFDTSDGYKYFAPANTVNDNIYGQAVEYSGLVRVGEDVYYFGETYTIETGWIYDMENESDKYYFNPETKKACKGINLIDDIKYYFDEKGIMRTGLISFENNNYYFNENGEMQFGYINIEDKMFYFGEDGVMQIGVFNTPDGFKYFAHQNTLDENFEGESINYTGWLDLDEKRYYFTDEYIAATGSVIIDGEEYYFDPDTAQLVISE
On to B2, for which the binding result in assay [2] is listed as “no binding (tested: 10 nM FZD2-CRD-Fc)”.
